Results as given in publication PMC6374916.

Experiments:
[1] = target: K18 ΔK280 tau-AF488 oligomers, large (10-mers and higher, apparent size); assay: FRET or BRET; smFRET saturation binding, pseudo-equilibrium, apparent constants; 100 nM tau-AF488 oligomers or 1200 nM fibrils (initial monomer concentration; donor) mixed with 0.5 nM to 10 uM Hsp70-AF647 (acceptor), 5 min on ice, then diluted to 200 pM tau and read on a confocal setup; oligomer size classes by fluorescence intensity
[2] = target: K18 ΔK280 tau-AF488 fibrils; assay: as above
[3] = target: K18 ΔK280 tau oligomers, dual-labeled (tau-AF488/AF647 coaggregates); assay: single-molecule TIRF microscopy colocalisation; dual-labeled tau oligomers produced (heparin, 45 min, 37 °C) in the presence of 2 uM Hsp70-AF405 (1:5 Hsp70/tau), diluted into 0.05 M ammonium acetate pH 7 to 50–200 pM tau, adsorbed onto a glass cover slide for 15 min

Substance | Kd [1] | Kd [2] | stoichiometry N (Hsp70 molecules per tau monomer) [3]
Hsp70 labeled with Alexa Fluor 647 (from UniProt P0DMV8 1-641) (natural protein) | 170 nM | 19 nM | 
Hsp70 labeled with Alexa Fluor 405 (from UniProt P0DMV8 1-641) (natural protein) |  |  | 0.5
